Assay [1] addresses T1, mouse FAP (Mus musculus, UniProt P97321).
T1 construct: biotinylated His, Avi tag, mouse FAP (26-761, FAP-M82Q5); His; Avi tag (biotinylated); purchased AcroBiosystems FAP-M82Q5
T1 sequence (P97321 26-761): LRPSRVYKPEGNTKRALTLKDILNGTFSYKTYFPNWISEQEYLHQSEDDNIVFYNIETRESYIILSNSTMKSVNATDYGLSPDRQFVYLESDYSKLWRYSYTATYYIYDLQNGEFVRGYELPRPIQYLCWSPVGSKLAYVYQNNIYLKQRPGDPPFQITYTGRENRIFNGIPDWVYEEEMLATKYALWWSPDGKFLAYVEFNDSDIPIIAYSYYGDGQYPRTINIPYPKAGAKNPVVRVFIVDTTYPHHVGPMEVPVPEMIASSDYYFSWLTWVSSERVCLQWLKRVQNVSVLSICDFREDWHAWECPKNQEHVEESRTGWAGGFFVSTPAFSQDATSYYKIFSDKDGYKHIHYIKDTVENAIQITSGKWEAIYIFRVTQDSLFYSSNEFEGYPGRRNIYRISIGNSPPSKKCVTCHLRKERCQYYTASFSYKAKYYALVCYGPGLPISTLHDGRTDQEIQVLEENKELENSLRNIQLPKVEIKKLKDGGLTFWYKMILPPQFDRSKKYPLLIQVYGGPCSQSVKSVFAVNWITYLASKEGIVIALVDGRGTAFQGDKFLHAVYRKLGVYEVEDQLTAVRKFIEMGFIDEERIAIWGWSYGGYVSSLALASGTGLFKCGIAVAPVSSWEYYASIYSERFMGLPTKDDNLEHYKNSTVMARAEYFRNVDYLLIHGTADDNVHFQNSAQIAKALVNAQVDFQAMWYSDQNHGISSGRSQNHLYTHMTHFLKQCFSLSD
In words: Surface plasmon resonance (SPR) for peptide affinity, mouse FAP. It is filed as binding. On the procedure: Peptide affinities (KD) were determined by SPR using a Biacore™ 8K device (Cytiva) towards the following proteins: biotinylated His, Avi tag, human FAP (26-760, FAP-H82Q6), biotinylated His, Avi tag, mouse FAP (26-761, FAP-M82Q5), His tag, human DPP4 (34-766, DP4-H82E3), all purchased from AcroBiosystems and His tag, mouse DPP4 (29-760, 954-SE) from R&D Systems. The FAP proteins and their homologous were diluted to a concentration of 2 μg/mL into acetate buffer pH 5.5, then immobilized onto a CM5 sensorchip (Cytiva, BR-1005-30) to reach a response around 2000 R U. The running buffer HBS-EP+pH 7.6 (20× from Teknova CAT. No: H8022) contained 10 mM HEPES pH 7.6, 150 mM NaCl, 3 mM EDTA, 0.05% Tween20 and 2% DMSO. Experiments were carried out at 25° C. using a flow rate of 30 μL/min. Compounds were tested in single cycle kinetic mode at 8 different concentrations. Curve fitting was performed using the Biacore™ 8K evaluation software. The sensorgrams were fitted by applying a 1:1 binding model to calculate kinetic rate constants and equilibrium dissociation constants (KD).
For this assay, the setup had the same conditions (flow rate, running buffer, peptide dilution) as described above for the CM5 method. The oligo CAP reagent obtained in the CAPture Kit (Ref. 28920234) was 1/5 diluted into running buffer and used with a contact time of 300 s at a flow rate of 2 μL/min. The human and mouse FAP constructs described above were used (from AcroBiosystems or produced in house). The FAP proteins were diluted to a concentration of 2 μg/mL into acetate pH 5.5, 0.05% Tween20 and used with a contact time of 600 s at a flow rate of 10 μL/min. The peptides were tested with an association time of 280 s followed by a dissociation time of 3000 s at a flow rate of 30 μL/min. The regeneration was done using the regeneration solution (8 M guanidine-HCl, 1 M NaOH) as obtained with a contact time of 270 s at a flow rate of 10 μL/min. […] The compounds marked with an asterisk were tested against human and mouse DDP4.

Assay [2] concerns the target T2, human FAP (Homo sapiens, UniProt Q12884).
T2 construct: the biotinylated His, Avi tag, human FAP (26-760, FAP-H82Q6); His; Avi tag (biotinylated); purchased AcroBiosystems FAP-H82Q6
T2 sequence (Q12884 26-760): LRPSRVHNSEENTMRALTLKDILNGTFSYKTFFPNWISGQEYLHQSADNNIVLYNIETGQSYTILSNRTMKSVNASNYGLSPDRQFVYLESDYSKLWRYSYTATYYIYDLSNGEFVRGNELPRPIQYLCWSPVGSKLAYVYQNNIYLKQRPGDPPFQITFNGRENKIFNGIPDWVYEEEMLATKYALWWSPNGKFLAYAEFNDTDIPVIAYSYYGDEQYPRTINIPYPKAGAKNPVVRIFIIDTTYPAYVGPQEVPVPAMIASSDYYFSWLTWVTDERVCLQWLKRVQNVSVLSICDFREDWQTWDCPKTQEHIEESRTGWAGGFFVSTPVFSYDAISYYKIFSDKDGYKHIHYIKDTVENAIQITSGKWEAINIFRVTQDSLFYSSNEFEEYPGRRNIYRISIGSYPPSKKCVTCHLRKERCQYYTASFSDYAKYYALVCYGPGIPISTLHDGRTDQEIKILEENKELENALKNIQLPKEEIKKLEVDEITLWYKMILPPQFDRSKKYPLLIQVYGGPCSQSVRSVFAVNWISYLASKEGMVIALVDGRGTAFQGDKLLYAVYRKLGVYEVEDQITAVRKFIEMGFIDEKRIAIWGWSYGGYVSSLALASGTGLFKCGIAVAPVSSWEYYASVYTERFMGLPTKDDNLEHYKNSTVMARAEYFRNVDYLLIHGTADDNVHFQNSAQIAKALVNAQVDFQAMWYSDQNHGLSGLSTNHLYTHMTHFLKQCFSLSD
The experiment in a line: Enzymatic FAP competition assay (Z-Gly-Pro-AMC fluorescence), human FAP. Particulars: read-out: h. FAP, Enz., IC50. It is filed as biochemical. On the procedure: (§1) Peptide potencies (IC50) to inhibit the FAP enzymatic activity were determined using a fluorescence-based assay towards the biotinylated His, Avi tag, human FAP (26-760, FAP-H82Q6) and the biotinylated His, Avi tag, mouse FAP (26-761, FAP-M82Q5). Standard assay conditions consisted of 20 μL total volume in white 384-well plates (Greiner, Ref. 784075), in 50 mM phosphate buffer pH 7.5 containing 150 mM NaCl, 0.05% Tween20 and 1% final DMSO. Tested peptides at 14 different concentrations up to 1 μM were added to 0.01 nM human or mouse FAP. The peptides were incubated for 24 hours together with the protein before adding the substrate 50 μM Z-Gly-Pro-AMC (I-1145 from Bachem). Samples were then incubated at 22-24° C. for 4 h before reading the fluorescence at excitation wavelength of 380 nm and emission wavelength of 460 nm using the Tecan Infinite® M1000 PRO. The high control (100% activity) was not containing any peptide, and an internal potent peptide was added at 10 μM concentration for the low control (100% inhibition). IC50 values were calculated by curve fitting using an in-house developed software (Novartis Helios software application) using the method described by Fomenko et al., 2006 (regression algorithms for nonlinear dose-response curve fitting). Following normalization of activity values for the wells to % inhibition (% inhibition=[(high control-sample)/(high control-low control)]x 100). IC50 fitting was carried out from the duplicated points.

Assay [3] concerns the target T1, mouse FAP. In words: Enzymatic FAP competition assay (Z-Gly-Pro-AMC fluorescence), mouse FAP. The class given is biochemical. Particulars: read-out: m. FAP, Enz., IC50. On the procedure: as §1

pIC50, pKd: −log10 of the molar value. Structures can show the parent of a compound that is named as a salt. Starred links: 1 amine or outer side, 2 acyl side, 3 side chain; linkers in the order of their positions; H or OH if unused. Non-standard residues stand in square brackets, D forms with d. Residues, ends and D or L forms follow the SMILES beside them. Groups on a side chain read outwards from the residue. Primed or numbered codes have the meaning given here. *: point of attachment. F(4amPEG2NHNODAGA-Ga) = gallium complex of 2,2'-(7-(1-(4-((S)-2-amino-2-carboxyethyl)phenyl)-15-carboxy-3,12-dioxo-5,8-dioxa-2,11-diazapentadecan-15-yl)-1,4,7-triazonane-1,4-diyl)diacetic acid (Phe with 4-aminomethyl-PEG2-NODAGA-Ga), O=C([O-])CN1CCN(CC(=O)[O-])CCN(C(CCC(=O)NCCOCCOCC(=O)NCc2ccc(C[C@H](N[*:1])C(=O)[*:2])cc2)C(=O)[O-])CC1.[Ga+3]; F(4amPEG2NHDOTA-Lu)″ = lutetium (S)-2,2',2''-(10-(1-(4-(2-amino-2-carboxyethyl)phenyl)-3,12-dioxo-5,8-dioxa-2,11-diazatridecan-13-yl)-1,4,7,10-tetraazacyclododecane-1,4,7-triyl)triacetic acid, O=C([O-])CN1CCN(CC(=O)[O-])CCN(CC(=O)NCCOCCOCC(=O)NCc2ccc(C[C@H](N[*:1])C(=O)[*:2])cc2)CCN(CC(=O)[O-])CC1.[Lu+3]; F(4OEtnHNODAGA-Lu) = lutetium complex of 2,2'-(7-(4-((2-(4-((S)-2-amino-2-carboxyethyl)phenoxy)ethyl)amino)-1-carboxy-4-oxobutyl)-1,4,7-triazonane-1,4-diyl)diacetic acid (Phe with 4-O-ethylamino-NODAGA-Lu); COpipzaa = 4-(carboxymethyl)piperazine-1-carbonyl, O=C(O)CN1CCN(C(=O)*)CC1; X4 = 4‑(carboxymethyl)piperazine‑1‑carbonyl, O=C(O)CN1CCN(C(=O)*)CC1; hS(Pr) = O-propyl-L-homoserine, CCCOCC[C@H](N[*:1])C(=O)[*:2]; DOTA = O=C(O)CN1CCN(CC(=O)O)CCN(CC(=O)*)CCN(CC(=O)O)CC1; Piperazinyl(4-CH2COOH) = O=C(O)CN1CCN(*)CC1; AEF = NCCOc1ccc(C[C@H](N)C(=O)O)cc1; NMeF = CN[C@@H](Cc1ccccc1)C(=O)O; Ahp(2) = CCCCC[C@H](N)C(=O)O; CO = O=C([*:1])[*:2]; X3 = FC1(F)CCN(*)C1 Where only a bound is given, the exact number is not on record here.

In turn, “Pro-Gly-NMePhe-F(4amPEG2NHDOTA-Lu)-hS(Pr)-Trp-Gly-K(COpipzaa)-Asp-D-Pro (cyclo(PG[NMeF][F(4amPEG2NHDOTA-Lu)″][hS(Pr)]WGK(X4)D[dP])) [Example C20]” showed a negative logarithm of the Kd (pKd) in assay [1] above 10.51. Besides, the pIC50 is 10.80 in assay [2] and 10.52 in assay [3].

In assay [1], `CN1C(=O)CNC(=O)[C@H](CCCCN)NC(=O)[C@H]2CCCN2C(=O)[C@H](CC(=O)O)NC(=O)[C@H](Cc2ccc(O)cc2)NC(=O)CNC(=O)[C@H](Cc2c[nH]c3ccccc23)NC(=O)[C@H](CCC(=O)N2CCC(F)(F)C2)NC(=O)[C@H](Cc2ccc(O)cc2)NC(=O)[C@@H]1Cc1ccccc1` [Example A30, Lys-Gly-NMePhe-Tyr-Q(Pyrro(4F2))-Trp-Gly-Tyr-Asp-D-Pro, TFA salt] (cyclo(D[dP]KG[NMeF]YE(X3)WGY)) had a negative logarithm of the Kd (pKd) of 8.62. Moreover, the results for the negative logarithm of the IC50 (pIC50) in assay [2] and in assay [3] were 9.10 and 8.60, respectively.

In turn, “Gly-Gly-NMePhe-F(4amPEG2NHNODAGA-Ga)-hS(Pr)-Trp-Gly-K(COpipzaa)-Asp-D-Pro (cyclo(GG[NMeF][F(4amPEG2NHNODAGA-Ga)][hS(Pr)]WGK(COpipzaa)D[dP]); also: Ga complex) [Example C40]” had a pKd in assay [1] above 10.70. For the same molecule, the results for the negative-log IC50 (pIC50) in assay [2] and in assay [3] were 11.22 and 10.72, respectively.

As to `CCCCC[C@@H]1NC(=O)[C@H](Cc2ccc(OCCNC(=O)CN3CCN(CC(=O)O)CCN(CC(=O)O)CCN(CC(=O)O)CC3)cc2)NC(=O)[C@H](Cc2ccccc2)N(C)C(=O)CNC(=O)[C@H](CCCCNC(=O)N2CCN(CC(=O)O)CC2)NC(=O)[C@H]2CCCN2C(=O)[C@H](CC(=O)O)NC(=O)[C@H](Cc2ccc(O)cc2)NC(=O)CNC(=O)[C@H](Cc2c[nH]c3ccccc23)NC1=O` [Example B25, K(COpipzaa)-Gly-NMePhe-F(4OEtNHDOTA)-Ahp-Trp-Gly-Tyr-Asp-D-Pro] (cyclo([AEF](DOTA)[Ahp(2)]WGYD[dP]K([CO-Piperazinyl(4-CH2COOH)])G[NMeF])), in assay [1], the negative logarithm of the Kd (pKd) is 9.36. Moreover, the figures for the pIC50 in assay [2] and in assay [3] were 10.00 and 9.42, respectively.

Regarding “Gly-Gly-NMePhe-F(4OEtnHNODAGA-Lu)-Ahp-Trp-Gly-Tyr-Asp-D-Pro (cyclo(GG[NMeF][F(4OEtnHNODAGA-Lu)][Ahp(2)]WGYD[dP]); also: Lu complex) [Example C30]”, the negative logarithm of the Kd (pKd) in assay [1] was above 10.77. Moreover, the negative-log IC50 (pIC50) in assay [2] was 10.47; in assay [3], 9.71.

Take `CCCCC[C@@H]1NC(=O)[C@H](Cc2ccc(O)cc2)NC(=O)[C@H](Cc2ccccc2)N(C)C(=O)CNC(=O)CNC(=O)[C@H]2CCCN2C(=O)[C@H](C)NC(=O)[C@H](Cc2ccc(O)cc2)NC(=O)CNC(=O)[C@H](Cc2c[nH]c3ccccc23)NC1=O` [Example A56, Gly-Gly-NMePhe-Tyr-Ahp-Trp-Gly-Tyr-Ala-D-Pro] (cyclo(A[dP]GG[NMeF]Y[Ahp(2)]WGY)): in assay [1], the negative-log Kd (pKd) was 7.49. In addition, the negative-log IC50 (pIC50) in assay [2] is 8.38; in assay [3], 7.51.

Broadly, the pKd is the Kd on a negative log10 scale, so that one unit is a factor of ten. Higher therefore signals a low Kd. In general, pIC50 refers to the negative decadic logarithm of the IC50, by convention in mol/L.

(Values after patent publication US20250090699A1, “FAP TARGETING CYCLIC PEPTIDES AND CONJUGATES THEREOF” (Novartis AG, priority 2023, published 2025).)
